According to patent US9290745B2, “Luciferase biosensor” (PROMEGA CORPORATION, priority 2003, dated 2016):
“Also recorded” adds a separate entry of the source. Each block holds one molecule with its values, some of them ahead of it.

What was measured:
[1] = target: T1, caspase-3 (Homo sapiens, UniProt P42574); assay type: biochemical
T1 construct: purchased BioMol
T1 sequence (P42574 29-175 limits assumed): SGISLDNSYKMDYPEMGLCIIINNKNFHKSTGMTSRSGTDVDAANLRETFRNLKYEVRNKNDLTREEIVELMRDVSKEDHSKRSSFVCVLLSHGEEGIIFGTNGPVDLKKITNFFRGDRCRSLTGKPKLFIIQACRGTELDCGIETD
T1 sequence (P42574 176-277 limits assumed): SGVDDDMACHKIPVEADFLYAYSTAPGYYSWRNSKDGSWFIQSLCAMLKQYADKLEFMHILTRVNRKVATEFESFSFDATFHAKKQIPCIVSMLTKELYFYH

[2] = target: cyclic AMP dependent protein kinase catalytic subunit (Homo sapiens, UniProt P17612); conditions: cited from earlier work
[3] = target: cyclic AMP-dependent protein kinase (Homo sapiens, UniProt P17612); conditions: cited from earlier work
[4] = target: T2, enterokinase (Bos taurus, UniProt P98072); experiment: Enterokinase assay with firefly luciferases having an internal enterokinase site; assay type: biochemical
T2 construct: purchased Invitrogen
T2 sequence (P98072 801-1035 limits assumed): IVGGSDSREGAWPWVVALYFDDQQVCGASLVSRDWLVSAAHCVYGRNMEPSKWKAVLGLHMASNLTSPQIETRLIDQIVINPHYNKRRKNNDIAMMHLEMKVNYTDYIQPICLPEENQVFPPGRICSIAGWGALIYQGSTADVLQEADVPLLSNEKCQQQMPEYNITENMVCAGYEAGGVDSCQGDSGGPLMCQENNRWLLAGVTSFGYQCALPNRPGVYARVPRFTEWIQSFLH

[5] = target: T1, caspase-3; experiment: Caspase-3 activation of circularly permuted firefly luciferase having a caspase-3 site; assay type: biochemical; conditions: TnT rabbit reticulocyte lysate

Molecule: Ac-DEVD-CHO
caspase-3 induced decrease of Cbg69DEVD luciferase activity in presence of caspase inhibitor [1]: decrease in activity was not observed

Molecule: LRRASLG
reduction of activity on addition of kinase catalytic subunit [2]: 30%

Molecule: RRFS: Photinus pyralis luciferase, valine 217 mutated to arginine generating site RRFS (Sala-Newby et al.)
decrease of activity when phosphorylated [3]: up to 80%

luminescence reading (Turner 20/20 luminometer) ([4]; 0 minutes, with 1 U EKMax): 2561
luminescence reading (Turner 20/20 luminometer) ([4]; 0 minutes, without EKMax): 2517
luminescence reading (Turner 20/20 luminometer) ([4]; 15 minutes, with 1 U EKMax): 2905
luminescence reading (Turner 20/20 luminometer) ([4]; 15 minutes, without EKMax): 2855
luminescence reading (Turner 20/20 luminometer) ([4]; 30 minutes, with 1 U EKMax): 3190
luminescence reading (Turner 20/20 luminometer) ([4]; 30 minutes, without EKMax): 2987
effect of caspase-3 on activity [5]: not affected
B1: WT enzyme: parental (unmodified) firefly luciferase luc+ (protein)
chain: MEDAKNIKKGPAPFYPLEDGTAGEQLHKAMKRYALVPGTIAFTDAHIEVDITYAEYFEMSVRLAEAMKRYGLNTNHRIVVCSENSLQFFMPVLGALFIGVAVAPANDIYNERELLNSMGISQPTVVFVSKKGLQKILNVQKKLPIIQKIIIMDSKTDYQGFQSMYTFVTSHLPPGFNEYDFVPESFDRDKTIALIMNSSGSTGLPKGVALPHRTACVRFSHARDPIFGNQIIPDTAILSVVPFHHGFGMFTTLGYLICGFRVVLMYRFEEELFLRSLQDYKIQSALLVPTLFSFFAKSTLIDKYDLSNLHEIASGGAPLSKEVGEAVAKRFHLPGIRQGYGLTETTSAILITPEGDDKPGAVGKVVPFFEAKVVDLDTGKTLGVNQRGELCVRGPMIMSGYVNNPEATNALIDKDGWLHSGDIAYWDEDEHFFIVDRLKSLIKYKGYQVAPAELESILLQHPNIFDAGVAGLPDDDAGELPAAVVVLEHGKTMTEKEIVDYVASQVTTAKKLRGGVVFVDEVPKGLTGKLDARKIREILIKAKKGGKIAV
effect of enterokinase on luciferase activity [4]: no effect; also recorded: not affected; also recorded: not altered
